Changes are numbered by the printed parent chain. *1 amine or outer side, *2 acyl side, *3 side chain or, on linkers, in order; H or OH if unused. Where no end group is shown, it is not given here. Side-chain parts run from the residue outwards. [ ]: non-standard residue; d: D form. The star is where a group is joined. Undecanoyl(11-OPh(4-COOH)) = O=C(O)c1ccc(OCCCCCCCCCCC(=O)*)cc1; Decanoyl(10-(4-HOOC-PhO)) = O=C(O)c1ccc(OCCCCCCCCCC(=O)*)cc1; γGlu = O=C(O)[C@H](CCC(=O)[*:2])N[*:1]; εLys = N[C@@H](CCCCN[*:1])C(=O)[*:2]; 13‑carboxytridecanoyl = C14 diacid; AEEA = NCCOCCOCC(=O)O; Aib = CC(C)(N)C(=O)O
B1: GLP-1 derivative of Example 15 (Chem. 34), N^eps18,N^eps26-diacylated [Aib^8,Lys^18,Gln^34]-GLP-1-(7-37)-peptide (peptide)
peptide: H[Aib]EGTFTSDVSK([Ala-Ser-Ser-Ala-Ser-Ser-γGlu-Undecanoyl(11-OPh(4-COOH))])YLEGQAAK([Ala-Ser-Ser-Ala-Ser-Ser-γGlu-Undecanoyl(11-OPh(4-COOH))])EFIAWLVQGRG
B2: GLP-1 derivative of Example 16 (Chem. 35), N^eps18,N^eps26-diacylated [Aib^8,Lys^18,Gln^34]-GLP-1-(7-37)-peptide (peptide)
peptide: H[Aib]EGTFTSDVSK([Ser-Ser-Ser-Ser-Ser-Ser-γGlu-Undecanoyl(11-OPh(4-COOH))])YLEGQAAK([Ser-Ser-Ser-Ser-Ser-Ser-γGlu-Undecanoyl(11-OPh(4-COOH))])EFIAWLVQGRG
B3: GLP-1 derivative of Example 17 (Chem. 36), N^eps18,N^eps26-diacylated [Aib8,Lys18,Gln^34]-GLP-1-(7-37)-peptide (peptide)
peptide: H[Aib]EGTFTSDVSK([Gly-Ser-Ser-Gly-Ser-Ser-Gly-Ser-Ser-Gly-Ser-Ser-γGlu-Undecanoyl(11-OPh(4-COOH))])YLEGQAAK([Gly-Ser-Ser-Gly-Ser-Ser-Gly-Ser-Ser-Gly-Ser-Ser-γGlu-Undecanoyl(11-OPh(4-COOH))])EFIAWLVQGRG
B4: GLP-1 derivative of Example 18 (Chem. 37), N^eps18,N^eps26-diacylated [Aib^8,Lys^18,Gln^34]-GLP-1-(7-37)-peptide (peptide)
peptide: H[Aib]EGTFTSDVSK([εLys-Gly-Ser-Ser-Gly-Ser-Ser-γGlu-Undecanoyl(11-OPh(4-COOH))])YLEGQAAK([εLys-Gly-Ser-Ser-Gly-Ser-Ser-γGlu-Undecanoyl(11-OPh(4-COOH))])EFIAWLVQGRG
B5: GLP-1 derivative of Example 19 (Chem. 38), N^eps18,N^eps26-diacylated [Aib^8,Lys^18,Gln^34]-GLP-1-(7-37)-peptide (peptide)
peptide: H[Aib]EGTFTSDVSK([εLys-Ser-Ser-Ser-Ser-Ser-Ser-γGlu-Undecanoyl(11-OPh(4-COOH))])YLEGQAAK([εLys-Ser-Ser-Ser-Ser-Ser-Ser-γGlu-Undecanoyl(11-OPh(4-COOH))])EFIAWLVQGRG
B6: GLP-1 derivative of Example 20 (Chem. 39), N^eps18,N^eps26-diacylated [Aib8,Lys18,Gln^34]-GLP-1-(7-37)-peptide (peptide)
peptide: H[Aib]EGTFTSDVSK([εLys-Gly-Ser-Ser-Gly-Ser-Ser-Gly-Ser-Ser-Gly-Ser-Ser-γGlu-Undecanoyl(11-OPh(4-COOH))])YLEGQAAK([εLys-Gly-Ser-Ser-Gly-Ser-Ser-Gly-Ser-Ser-Gly-Ser-Ser-γGlu-Undecanoyl(11-OPh(4-COOH))])EFIAWLVQGRG
B7: GLP-1 derivative of Example 21 (Chem. 40), N^eps18,N^eps26-diacylated [Aib^8,Lys^18,Gln^34]-GLP-1-(7-37)-peptide (peptide)
peptide: H[Aib]EGTFTSDVSK([εLys-Gly-Ser-Ser-Gly-Ser-Ser-Gly-Ser-Ser-Gly-Ser-Ser-Gly-Ser-Ser-Gly-Ser-Ser-γGlu-Undecanoyl(11-OPh(4-COOH))])YLEGQAAK([εLys-Gly-Ser-Ser-Gly-Ser-Ser-Gly-Ser-Ser-Gly-Ser-Ser-Gly-Ser-Ser-Gly-Ser-Ser-γGlu-Undecanoyl(11-OPh(4-COOH))])EFIAWLVQGRG
B8: Comparative compound of Example 22a: Compound of Example 141, Chem. 189, in WO 2012/062803 (peptide)
peptide: H[Aib]EGTFTSDVSK([AEEA-AEEA-γGlu-13‑carboxytridecanoyl])YLEGQAAK([AEEA-AEEA-γGlu-13‑carboxytridecanoyl])EFIAWLVQGRG
B9: GLP-1 derivative of Example 26 (Chem. 45), N^eps26,N^eps37-diacylated [Imp^7,Aib^8,Arg^34,Lys^37]-GLP-1-(7-37)-peptide (peptide)
peptide: XXEGTFTSDVSSYLEGQAAKEFIAWLVRGRK
modifications: Imp (imidazopropionyl, des-amino histidine) at 7; Aib at 8; eps-amino of Lys26 and Lys37 each acylated with 12-(4-carboxyphenoxy)dodecanoyl-gGlu-Ser-Ser-Gly-Ser-Ser-Gly
B10: Comparative compound of Example 3a: Compound of Example 33, Chem. 52, in WO 2011/080103 (peptide)
peptide: HAEGTFTSDVSSYLEGQAAK([AEEA-AEEA-γGlu-Decanoyl(10-(4-HOOC-PhO))])EFIAHLVQGRK([AEEA-AEEA-γGlu-Decanoyl(10-(4-HOOC-PhO))])
B11: GLP-1 derivative of Example 4 (Chem. 23), N^eps26,N^eps37-diacylated [Arg^34,Lys^37]-GLP-1-(7-37)-peptidyl-Glu (peptide)
peptide: HAEGTFTSDVSSYLEGQAAK([Gly-Ser-Ser-Gly-Ser-Ser-γGlu-Decanoyl(10-(4-HOOC-PhO))])EFIAWLVRGRK([Gly-Ser-Ser-Gly-Ser-Ser-γGlu-Decanoyl(10-(4-HOOC-PhO))])E
B12: GLP-1 derivative of Example 14 (Chem. 33), N^eps18,N^eps26-diacylated [Aib^8,Lys^18,Gln^34]-GLP-1-(7-37)-peptide (peptide)
peptide: H[Aib]EGTFTSDVSK([Gly-Ser-Ser-Gly-Ser-Ser-γGlu-Undecanoyl(11-OPh(4-COOH))])YLEGQAAK([Gly-Ser-Ser-Gly-Ser-Ser-γGlu-Undecanoyl(11-OPh(4-COOH))])EFIAWLVQGRG
B13: GLP-1 derivative of Example 30 (Chem. 49), N^eps26,N^eps37-diacylated [Imp^7,Aib^8,Arg^34,Lys^37]-GLP-1-(7-37)-peptide (peptide)
peptide: B9 peptide
modifications: Imp (imidazopropionyl, des-amino histidine) at 7; Aib at 8; eps-amino of Lys26 and Lys37 each acylated with 12-(4-carboxyphenoxy)dodecanoyl-gGlu-Ser-Gly-Ser-eps-Lys
B14: Comparative compound of Example 1a: Compound of Example 2, Chem. 21, in WO 2011/080103 (peptide)
peptide: B9 peptide with X1H
modifications: not fully specified; Aib at 8; eps-amino of Lys26 and Lys37 each acylated with 10-(4-carboxyphenoxy)decanoyl via the gGlu-2xOEG linker (as Example 1, only the linker differs)

molecular target: T1, human GLP-1 receptor (human, UniProt P43220 24-463); test: cell-based or functional assay

B1 and B2 are within 1.5-fold of each other in “In vitro potency (AlphaScreen cAMP; membranes) EC50” value: 0.183 nM for the first, 0.146 nM for the second.

Compared with B3, B4 is 1.9-fold lower in “In vitro potency (AlphaScreen cAMP; membranes) EC50” value: 0.171 nM for the first, 0.089 nM for the second.

Compared with B5, B6 is 1.9-fold higher in “In vitro potency (AlphaScreen cAMP; membranes) EC50” value: 0.181 nM for the first, 0.35 nM for the second.

Going from B7 to B8, the “In vitro potency (AlphaScreen cAMP; membranes) EC50” value rises from 0.486 nM to 1.14 nM (2.3-fold).

B9 and B10 are within 1.5-fold of each other in “In vitro potency (AlphaScreen cAMP; membranes) EC50” value: 0.446 nM for the first, 0.506 nM for the second.

In the case of B11, the “In vitro potency (AlphaScreen cAMP; membranes) EC50” value is reported as 0.048 nM.

molecular target: T1, human GLP-1 receptor; test: cell-based or functional assay; remark: another data set of the same source

Going from B1 to B2, the “In vitro potency (CRE-luciferase) low albumin EC50” value falls from 0.015 nM to 0.0083 nM (1.8-fold).

First: B3
Second: B5
The “In vitro potency (CRE-luciferase) low albumin EC50” value of the first is 2.6-fold higher: 0.029 nM for the first, 0.011 nM for the second.

Compared with B7, B8 is 3.7-fold higher in “In vitro potency (CRE-luciferase) low albumin EC50” value: 0.047 nM for the first, 0.174 nM for the second.

Compared with B9, B10 is 21-fold higher in “In vitro potency (CRE-luciferase) low albumin EC50” value: 0.0058 nM for the first, 0.124 nM for the second.

B11 and B12 are within 1.5-fold of each other in “In vitro potency (CRE-luciferase) low albumin EC50” value: 0.008 nM for the first, 0.0056 nM for the second.

B13 was tested, and the “In vitro potency (CRE-luciferase) low albumin EC50” value was 0.0094 nM.

molecular target: T1, human GLP-1 receptor; test: SPA, displacement of 125I-GLP-1(7-36)NH2, BHK membranes, 0.001% HSA
Procedure: Test compounds, membranes, SPA-particles and [¹²⁵I] ]-GLP-1(7-36)NH₂ were diluted in assay buffer. 50 ul (micro liter) buffer (“low albumin” experiment containing 0.001% HSA) was added to Optiplate, and 25 ul of test compounds were added. 5-10 μg membrane protein/sample was added (50 μl) corresponding to 0.1-0.2 mg protein/ml (to be preferably optimised for each membrane preparation). SPA-particles (Wheatgerm agglutinin SPA beads, Perkin Elmer, #RPNQ0001) were added in an amount of 0.5 mg/well (50 μl). The incubation was started with [¹²⁵I]-GLP-1]-(7-36)NH₂ (final concentration 0.06 nM corresponding to 49.880 DPM, 25 μl). The plates were sealed with PlateSealer and incubated for 120 minutes at 30° C. while shaking. The plates were centrifuged (1500 rpm, 10 min) and counted in Topcounter.
The IC₅₀ value was read from the curve as the concentration which displaces 50% of ¹²⁵I-GLP-1 from the receptor.

Compared with B14, B1 is 4.5-fold lower in IC50: 2.27 nM for the first, 0.5 nM for the second. The second is the more potent here.

Compared with B2, B3 is 2.5-fold higher in IC50: 0.54 nM for the first, 1.34 nM for the second. The first is the more potent here.

B4 and B5 are within 1.5-fold of each other in IC50: 0.48 nM for the first, 0.42 nM for the second.

First: B6
Second: B7
The IC50 of the first is 2.1-fold lower: 2.27 nM for the first, 4.87 nM for the second. The first is the more potent here.

Compared with B8, B9 is 91-fold lower in IC50: 48.4 nM for the first, 0.53 nM for the second.

First: B10
Second: B11
The IC50 of the first is 89-fold higher: 51.5 nM for the first, 0.58 nM for the second. The second is the more potent here.

Compared with B12, B13 is 2.1-fold lower in IC50: 0.37 nM for the first, 0.18 nM for the second. The second is the more potent here.

From US20170145069A1 (Novo Nordisk, published 2017)
